According to patent publication US20060234285A1 (Human Genome Sciences, published 2006):

Key:
Experiment in all cases: flow cytometry on transiently transfected cells
[1] = biological target: T1, DR6, on transiently transfected cells (UniProt O75509 42-655, limits assumed)
T1 construct: whole, on cells
T1 sequence (looked up): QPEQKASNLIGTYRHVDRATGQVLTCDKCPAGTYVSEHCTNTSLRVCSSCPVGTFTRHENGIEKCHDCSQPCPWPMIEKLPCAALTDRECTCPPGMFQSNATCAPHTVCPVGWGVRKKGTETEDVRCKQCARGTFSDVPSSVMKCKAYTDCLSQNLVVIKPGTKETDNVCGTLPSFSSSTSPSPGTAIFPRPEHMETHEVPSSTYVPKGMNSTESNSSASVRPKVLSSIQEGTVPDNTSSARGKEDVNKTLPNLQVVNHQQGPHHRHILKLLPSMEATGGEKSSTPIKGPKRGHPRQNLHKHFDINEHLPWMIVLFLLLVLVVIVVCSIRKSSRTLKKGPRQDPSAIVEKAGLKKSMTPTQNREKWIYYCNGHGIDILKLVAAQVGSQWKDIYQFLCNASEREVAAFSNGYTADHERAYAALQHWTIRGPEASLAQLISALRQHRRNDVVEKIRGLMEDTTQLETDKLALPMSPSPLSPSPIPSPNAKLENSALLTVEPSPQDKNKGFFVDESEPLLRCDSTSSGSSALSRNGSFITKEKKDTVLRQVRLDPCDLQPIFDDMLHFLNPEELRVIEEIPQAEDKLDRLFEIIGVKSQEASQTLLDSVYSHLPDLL
Experimental: (§1) One million cells, in 0.1 ml of FACS buffer (PBS, 0.1% BSA, 0.1% NaN₃), were incubated with 0.1-1 microgram of protein or antibody at RT for 15 min. The cells were washed with 3 ml of FACS buffer, reacted with biotinylated primary antibody, and stained with PE-conjugated secondary antibody at RT for 15 min. Cells were then washed again, resuspended in 0.5 microgram/ml of propidium iodide, and live cells were gated and analyzed on a FACScan using the CellQuest software (BD Biosciences).

[2] = biological target: T2, HveA, on transiently transfected cells (UniProt Q92956 39-283, limits assumed)
T2 construct: whole, on cells
T2 sequence (looked up): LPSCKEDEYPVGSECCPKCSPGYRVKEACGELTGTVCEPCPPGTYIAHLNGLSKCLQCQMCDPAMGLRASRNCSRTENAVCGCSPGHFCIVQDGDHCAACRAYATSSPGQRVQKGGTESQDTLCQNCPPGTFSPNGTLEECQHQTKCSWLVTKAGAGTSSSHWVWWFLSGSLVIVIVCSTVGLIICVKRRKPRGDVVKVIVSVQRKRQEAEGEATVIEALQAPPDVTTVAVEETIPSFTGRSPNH
Experimental: as §1

[3] = biological target: T3, AITR, on transiently transfected cells (UniProt Q9Y5U5 26-241, limits assumed)
T3 construct: whole, on cells
T3 sequence (looked up): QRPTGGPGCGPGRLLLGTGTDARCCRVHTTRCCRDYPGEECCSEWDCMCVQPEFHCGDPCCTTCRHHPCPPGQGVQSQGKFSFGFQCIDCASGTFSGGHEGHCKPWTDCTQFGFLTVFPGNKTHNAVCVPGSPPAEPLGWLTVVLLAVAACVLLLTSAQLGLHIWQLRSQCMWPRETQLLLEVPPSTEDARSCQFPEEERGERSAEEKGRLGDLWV
Experimental: as §1

[4] = biological target: T4, TNFR2, on transiently transfected cells (UniProt P20333 23-461, limits assumed)
T4 construct: whole, on cells
T4 sequence (looked up): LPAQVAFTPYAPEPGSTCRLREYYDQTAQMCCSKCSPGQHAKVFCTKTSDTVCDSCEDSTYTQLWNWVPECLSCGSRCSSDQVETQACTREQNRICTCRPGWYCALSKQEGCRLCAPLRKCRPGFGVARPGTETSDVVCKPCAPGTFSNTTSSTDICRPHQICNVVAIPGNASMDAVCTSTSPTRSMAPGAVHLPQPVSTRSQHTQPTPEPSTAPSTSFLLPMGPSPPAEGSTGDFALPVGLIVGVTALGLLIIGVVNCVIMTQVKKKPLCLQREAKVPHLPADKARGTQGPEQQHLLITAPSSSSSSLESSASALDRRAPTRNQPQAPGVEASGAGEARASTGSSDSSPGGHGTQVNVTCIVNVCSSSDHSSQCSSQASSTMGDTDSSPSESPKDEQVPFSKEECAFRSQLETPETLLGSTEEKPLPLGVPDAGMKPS
Experimental: as §1

[5] = biological target: T5, 4-1BB, on transiently transfected cells (UniProt Q07011 24-255)
T5 construct: whole, on cells
Experimental: as §1

[6] = biological target: T6, LTβR, on transiently transfected cells (UniProt P36941 31-435)
T6 construct: whole, on cells
Experimental: as §1

[7] = biological target: T7, CD27, on transiently transfected cells (UniProt P26842 20-260, limits assumed)
T7 construct: whole, on cells
T7 sequence (looked up): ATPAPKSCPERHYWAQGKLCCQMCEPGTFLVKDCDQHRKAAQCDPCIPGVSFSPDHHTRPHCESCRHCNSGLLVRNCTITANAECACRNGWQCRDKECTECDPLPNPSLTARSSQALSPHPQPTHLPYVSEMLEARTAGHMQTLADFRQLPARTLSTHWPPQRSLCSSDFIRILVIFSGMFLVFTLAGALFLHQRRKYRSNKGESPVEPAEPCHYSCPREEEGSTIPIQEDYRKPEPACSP
Experimental: as §1

[8] = biological target: T8, DR4, on transiently transfected cells (UniProt O00220 24-468, limits assumed)
T8 construct: whole, on cells
T8 sequence (looked up): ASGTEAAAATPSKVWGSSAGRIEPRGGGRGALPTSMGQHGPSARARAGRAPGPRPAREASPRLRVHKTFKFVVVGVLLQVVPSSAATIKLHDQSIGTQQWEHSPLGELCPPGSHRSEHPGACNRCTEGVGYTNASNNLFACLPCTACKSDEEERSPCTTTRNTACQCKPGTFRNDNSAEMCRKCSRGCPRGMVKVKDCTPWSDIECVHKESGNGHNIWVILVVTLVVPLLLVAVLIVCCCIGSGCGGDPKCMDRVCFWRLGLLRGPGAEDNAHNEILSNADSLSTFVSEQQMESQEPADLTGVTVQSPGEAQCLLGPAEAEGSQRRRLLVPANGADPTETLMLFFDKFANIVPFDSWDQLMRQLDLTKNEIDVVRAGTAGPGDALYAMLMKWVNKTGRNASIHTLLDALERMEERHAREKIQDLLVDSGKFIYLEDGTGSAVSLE
Experimental: as §1

Measured: binding result

T6 sequence (P36941 31-435): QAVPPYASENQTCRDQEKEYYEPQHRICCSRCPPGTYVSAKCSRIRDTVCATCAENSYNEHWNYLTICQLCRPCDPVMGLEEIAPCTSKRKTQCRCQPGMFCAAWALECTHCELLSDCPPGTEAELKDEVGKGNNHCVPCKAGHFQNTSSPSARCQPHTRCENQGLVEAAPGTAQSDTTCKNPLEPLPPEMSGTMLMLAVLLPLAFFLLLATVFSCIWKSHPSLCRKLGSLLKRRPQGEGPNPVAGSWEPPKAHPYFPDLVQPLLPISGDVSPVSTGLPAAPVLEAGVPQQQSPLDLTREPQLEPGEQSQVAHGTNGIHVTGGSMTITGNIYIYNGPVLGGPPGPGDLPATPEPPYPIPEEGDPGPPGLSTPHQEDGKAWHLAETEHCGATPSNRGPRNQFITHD
T5 sequence (Q07011 24-255): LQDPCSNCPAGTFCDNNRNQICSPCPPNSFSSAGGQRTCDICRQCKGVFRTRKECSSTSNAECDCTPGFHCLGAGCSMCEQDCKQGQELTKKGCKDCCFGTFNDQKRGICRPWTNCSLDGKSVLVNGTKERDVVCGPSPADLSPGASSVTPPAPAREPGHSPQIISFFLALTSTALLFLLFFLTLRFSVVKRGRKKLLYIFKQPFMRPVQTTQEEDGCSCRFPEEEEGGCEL

B1: FLAG-tagged soluble form of TNF-gamma-beta (aa 72-251) (ligand, human, UniProt O95150 72-251, looked up, not shown: small tags and cut ends)
chain: LKGQEFAPSHQQVYAPLRADGDKPRAHLTVVRQTPTQHFKNQFPALHWEHELGLAFTKNRMNYTNKFLLIPESGDYFIYSQVTFRGMTSECSEIRQAGRPNKPDSITVVITKVTDSYPEPTQLLMGTKSVCEVGSNWFQPIYLGAMFSLQEGDKLMVNVSDISLVDYTKEDKTFFGAFLL
notes: also called FLAG-TL1β; FLAG-TNF-gamma-beta
no binding: [1] | [2] | [3] | [4] | [5] | [6] | [7] | [8]
